Where a chain is given by its changes, count along the chain named.

T1: human IL-23R (hIL-23R), custom construct with C-terminal avi and his tags, biotinylated (human, UniProt Q5VWK5 24-355, limits assumed, enzymatically biotinylated via the avi-tag)
T1 construct: immobilized on streptavidin tips in BLI, labeled target in FACS; also called human IL-23 receptor
T1 sequence (looked up): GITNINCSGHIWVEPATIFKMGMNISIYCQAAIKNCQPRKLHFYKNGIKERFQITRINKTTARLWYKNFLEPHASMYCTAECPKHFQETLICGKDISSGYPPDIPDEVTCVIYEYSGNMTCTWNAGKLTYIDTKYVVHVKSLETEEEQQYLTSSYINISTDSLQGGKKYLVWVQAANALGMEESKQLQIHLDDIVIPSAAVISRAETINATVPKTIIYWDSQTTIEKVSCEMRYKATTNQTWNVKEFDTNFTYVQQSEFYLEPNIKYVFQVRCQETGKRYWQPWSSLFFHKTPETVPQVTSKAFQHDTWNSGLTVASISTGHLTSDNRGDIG

B1: rA11dslf02B (designed binder)
chain: MEPEEFLLELCKAYYEGKLSQIEAVEEIRHYARSFGLEAWQLIWYFMQCVKRDI
B2: rA11dslf02E (designed binder)
chain: PEPEQFLTELCKKYYEGKLSQPEAVEEIRKYARKWGLEAWKLIWYFMQCVKRDI
B3: rA11dslf02A (designed binder)
chain: MEPEKFLKELCKAYYEGKLSQQEAVEEIRSYAMKWGLEAWMLIWYFMQCVKRDI
B4: rA11dslf02C (designed binder)
chain: B1 chain with M1P, E5K, L8S, H30S, F35W, Q41K
B5: rA11dslf02D (designed binder)
chain: B2 chain with Q5K, T8A, K13A, K30S, I43V, Q48L
B6: B10 (designed binder)
chain: NLWVIFYVLNTIIKRTGDPTAKKLVKALQEAMKKWDEKATKELAKKATKYIRS
B7: B11 (designed binder)
chain: B6 chain with V4I, V8Q, V25I, M32N, T40L
B8: A01 (designed binder)
chain: MEPEKYLREKVKKYYEGKLSQPEAVEEIRKYARKKGLEAWKLVWYFMELVKRDI
B9: A13 (designed binder)
chain: B8 chain with L7V, V43I, Y45H, E48Q
B10: A07 (designed binder)
chain: B8 chain with P3E, K10L, G17K, E27I, Y45A, E48Q
B11: A04 (designed binder)
chain: B8 chain with P3E, L7V, K10L, Q21H, Y45A, E48Q
B12: A05 (designed binder)
chain: MEEEKYVREQVKKYYEKKLSQPEAVEIIRKYARKKGLEAWKLIWAFMQLVKRDI
B13: A11 (designed binder)
chain: MEEEKYVRELVKKYYEGKLSHQEAVVEIRKYARKKGLEAWKLVWMFMQLVKRNI
B14: A06 (designed binder)
chain: B12 chain with E3P, Q10L, I27E, K41M, I43V, A45H
B15: A12 (designed binder)
chain: B12 chain with E3P, Q10L, K17Q, P22Q, K41M, I43V
B16: A14 (designed binder)
chain: B12 chain with V7L, Q10L, K17Q, I28V, Q48E, D53Y
B17: A09 (designed binder)
chain: MEEEKYLRELVKKYYEQKLSQPEAVEIIRKYARKKGEEAWYLIWMFMELVKRDI
B18: A10 (designed binder)
chain: B12 chain with V7L, K17G, Q21V, P22V, I27E, I28V
B19: A02 (designed binder)
chain: B13 chain with V7L, G17Q, V26E, E27I, M45A, N53D
B20: B04 (designed binder)
chain: NLWQIFYLLNTIIKRTGDPTAKKLKKALREALKKGDEKAVKELAKKAMKYIRS
B21: B12 (designed binder)
chain: B20 chain with L8V, I13Y, K25P, L32M, G35N, V40I
B22: B07 (designed binder)
chain: B20 chain with L8M, I13F, K25L, L32T, V40M, M48T
B23: B02 (designed binder)
chain: B20 chain with L8I, L32T, V40M
B24: B05 (designed binder)
chain: B20 chain with Q4M, I13F, R29N, L32M, V40M, M48T
B25: B09 (designed binder)
chain: B20 chain with L8V, I13Y, K25P, G35N, V40T
B26: B01 (designed binder)
chain: B20 chain with Q4M, K25L, R29Q, G35Y, V40I
B27: A03dslf04 (designed binder)
chain: MEEEKCVRELCKKYYEGKLSQPEAVEEIRKCARKKGLEAWKLIWAFMQCVKRDIHHHHHH
notes: E. coli, purified
B28: A08dslf03 (designed binder)
chain: B27 chain with C6Y, G17K, C31Y, I43V, Q48E, D53N
notes: E. coli, purified
B29: A05dslf01 (designed binder)
chain: B27 chain with L10Q, G17K, E27I
notes: E. coli, purified
B30: A03 (designed binder)
chain: B12 chain with Q10L, K17G, I27E
B31: A08 (designed binder)
chain: B12 chain with Q10L, I27E, I43V, Q48E, D53N
B32: B06 (designed binder)
chain: B6 chain with V8L, I13H, V25I, Q29D, W35G, T48L
B33: B03 (designed binder)
chain: B20 chain with L8I, I13H, K25P, L32M, V40M, M48L

In the first assay the target is T1, human IL-23R (hIL-23R), custom …. Briefly: yeast display FACS, SIF incubation then labeled hIL-23R, 5-7 rounds. The method, then:
Yeast libraries were first incubated in SIF at 30C, then washed thoroughly and incubated with labeled hIL-23R, and cells retaining the highest binding signal (top 1-5%) were collected by FACS. Two rounds of selection were performed for each library, and the SIF incubation time and/or concentration of proteases were increased from first to second round. […] Indeed in several libraries we saw a large population of Myc-negative, binding-positive cells. In parallel, we performed two rounds of selection for binding to hIL-23R only, without pre-incubation in SIF. […] Best mutations were included in combinatorial libraries, sorted as above for 5-7 rounds after which individual clones were sequenced. Variants present in the final sorts were expressed in E. coli and characterized (SEQ ID NOS: 70-74 and 153-164).
(§1) Yeast strain EBY100 was transformed with each library and vector by electroporation and grow in minimal media selective for the yeast strain (-ura) and the transforming plasmid (-trp).²⁷ Expression was induced with 2% galactose. Surface expression was detected with anti-Myc-FITC (Immunology Consultants Laboratory) conjugate, and binding to biotinylated IL-23R was detected with streptavidin-PE (Invitrogen).
SIF SSM and combinatorial libraries were prepared as follows: after 16-24 hours induction, yeast were spun down, washed with PBSF, resuspended in SIF (recipe described below) at an OD of 2.0, and incubated at 30° C. shaking for 30-90 minutes as noted. After SIF digest, cells were spun down and washed 4 times with 800 uL PBSF, manually aspirating the supernatant each time to ensure complete washing to remove proteases. SIF-treated cells were then treated with target protein as described above.
As for B1, the binding result is “binds”.

As to B2, the binding result was “binds”.

As for B3, the binding result was “binds”.

For the molecule B4, the binding result was “binds”.

Regarding B5, the binding result is on record as “binds”.

The target is the same in another assay. Briefly: yeast display FACS, combinatorial library. As for the experimental part:
To further enhance affinity, we incorporated mutations previously shown to enhance binding in a combinatorial library that was then sorted for binding hIL-23R to convergence in 6 rounds. The final selection pools were plated on solid media, and individual clones sequenced. 26 unique combinatorial variants appearing in the final selection pool (SEQ ID NOS: 11-24 and 111-122) were selected for expression in E. coli and further biophysical characterization.
as §1
Yeast were then washed with PBSF and incubated for 2-5 minutes with stain solution (1:100 each anti-Myc-FITC and streptavidin-PE), washed, and resuspended for analysis and selection by FACS. FACS consecutive gates were set as follows: (1) cell granularity and size, selecting for yeast cells (BSC vs. FSC); (2) cell morphology, selecting singlets (FSC-height vs. FSC-width); (3) expression, selecting expressors by proxy of the Myc-tag (FITC fluorescence histogram); and (4) binding signal, selecting the top 1-5% relative to total population (PE vs. FITC).
On to B6, for which the binding result is given as “binds”.

As to B7, the binding result is given as “binds”.

B8: the binding result was “binds”.

As for B9, the binding result was “binds”.

B10: the binding result is listed as “binds”.

B11: the binding result was “binds”.

B12: the binding result is “binds”.

As to B13, the binding result is on record as “binds”.

As for B14, the binding result is recorded as “binds”.

In the case of B15, the binding result was “binds”.

As to B16, the binding result is “binds”.

For the molecule B17, the binding result was “binds”.

Regarding B18, the binding result is given as “binds”.

Turning to B19, the binding result is “binds”.

As to B20, the binding result is reported as “binds”.

B21: the binding result is “binds”.

On to B22, for which the binding result was “binds”.

Regarding B23, the binding result was “binds”.

On to B24, for which the binding result is recorded as “binds”.

On to B25, for which the binding result is listed as “binds”.

As for B26, the binding result is given as “binds”.

A further assay shares this target. In words: biolayer interferometry titration, biotinylated hIL-23R immobilised on streptavidin tips, 1:1 fit. As for the experimental part:
Variants were first screened for relative binding to hIL-23R with biolayer interferometry (BLI). hIL-23R was immobilized on the BLI sensor tips and binding to each variant in solution at a constant concentration (50 nM) was measured to qualitatively determine relative performance of the variants. For the best-performing variants, binding constants (KD, including kₒₙ, and koff) were quantitatively determined with BLI titration experiments in triplicate.
Qualitative and quantitative assessment of binding affinity was performed using biolayer interferometry (ForteBio Octet™ […] and associated software for analysis). Enzymatically biotinylated target protein (30 nM) was immobilized on streptavidin-coated sensor tips, then sequentially dipped in wells with: buffer only (baseline), inhibitor in solution (association), and buffer only (dissociation). Kinetic constants were determined from the mathematical fit of a 1:1 binding model.
The term Kd denotes the concentration at which binding is half-saturated. A lower Kd goes with a tighter complex. In general, koff refers to a measure of how fast the partners let go of each other. A high value points to a short-lived complex. For orientation: kon means the rate constant with which the complex forms. A lower kon goes with slower complex formation. In turn, B27 registered a Kd of 0.13 nM, an off-rate (koff) of 0.00034 s⁻¹ and an on-rate constant (kon) of 2.6e+06 M⁻¹ s⁻¹.

On to B28, for which the dissociation constant (Kd) was 0.14 nM, the koff is 0.0002 s⁻¹ and the association rate constant (kon) turned out to be 1.5e+06 M⁻¹ s⁻¹.

For B29, the affinity, expressed as Kd, was 0.46 nM; the koff was found to be 0.00044 s⁻¹; the kon turned out to be 960000 M⁻¹ s⁻¹.

In turn, B30 came in with a Kd of 0.25 nM, a koff of 0.00024 s⁻¹ and an on-rate (kon) of 980000 M⁻¹ s⁻¹.

As for B31, the dissociation constant (Kd) was found to be 0.37 nM, the koff was found to be 0.00028 s⁻¹ and the kon stood at 770000 M⁻¹ s⁻¹.

B32 gave a Kd of 0.32 nM, a koff of 0.00011 s⁻¹ and an association rate constant (kon) of 350000 M⁻¹ s⁻¹.

Consider B33, for which the equilibrium dissociation constant (Kd) was determined as 0.14 nM, the koff was found to be 5.6e-05 s⁻¹ and the kon was 400000 M⁻¹ s⁻¹.

The values are drawn from US20230357323A1 (University of Washington, published 2023).
